Reference: article PMC9961625, “Anti-Trypanosoma cruzi Properties of Sesquiterpene Lactones Isolated from Stevia spp.: In Vitro and In Silico Studies” (Pharmaceutics, 2023)

Test system: Cc1cc(=O)oc2cc(NC(=O)[C@@H]3CCCN3C(=O)CNC(=O)OCc3ccccc3)ccc12
Experiment: purified protein

“prolyl oligopeptidase of 80 kDa (Tc80) (Trypanosoma cruzi)” was tested, and the Km was 5.9 µM.
